Test results taken from US12104181B2, “Compositions and methods for treating viral infections targeting TRIM7” (THE BOARD OF REGENTS OF THE UNIVERSITY OF TEXAS SYSTEM, priority 2021, dated 2024).

B1: TRIM43: human RING type E3 ligase expressed from lentiviral vector (protein, UniProt Q96BQ3 1-446, looked up)
Tripartite motif-containing …: MDSDFSHAFQKELTCVICLNYLVDPVTICCGHSFCRPCLCLSWEEAQSPANCPACREPSPKMDFKTNILLKNLVTIARKASLWQFLSSEKQICGTHRQTKKMFCDMDKSLLCLLCSNSQEHGAHKHHPIEEAAEEHREKLLKQMRILWKKIQENQRNLYEEGRTAFLWRGNVVLRAQMIRNEYRKLHPVLHKEEKQHLERLNKEYQEIFQQLQRSWVKMDQKSKHLKEMYQELMEMCHKPDVELLQDLGDIVARSESVLLHMPQPVNPELTAGPITGLVYRLNRFRVEISFHFEVTNHNIRLFEDVRSWMFRRGPLNSDRSDYFAAWGARVFSFGKHYWELDVDNSCDWALGVCNNSWIRKNSTMVNSEDIFLLLCLKVDNHFNLLTTSPVFPHYIEKPLGRVGVFLDFESGSVSFLNVTKSSLIWSYPAGSLTFPVRPFFYTGHR
B2: TRIM44: human RING type E3 ligase expressed from lentiviral vector (protein, UniProt Q96DX7 1-344, looked up)
Tripartite motif-containing …: MASGVGAAFEELPHDGTCDECEPDEAPGAEEVCRECGFCYCRRHAEAHRQKFLSHHLAEYVHGSQAWTPPADGEGAGKEEAEVKVEQEREIESEAGEESESEEESESEEESETEEESEDESDEESEEDSEEEMEDEQESEAEEDNQEEGESEAEGETEAESEFDPEIEMEAERVAKRKCPDHGLDLSTYCQEDRQLICVLCPVIGAHQGHQLSTLDEAFEELRSKDSGGLKAAMIELVERLKFKSSDPKVTRDQMKMFIQQEFKKVQKVIADEEQKALHLVDIQEAMATAHVTEILADIQSHMDRLMTQMAQAKEQLDTSNESAEPKAEGDEEGPSGASEEEDT
modifications: lentiviral expression
notes: human RING type E3 ligase expressed from lentiviral vector
B3: TRIM40: human RING type E3 ligase expressed from lentiviral vector (protein, UniProt Q6P9F5 1-258, looked up)
E3 ubiquitin ligase TRIM40: MIPLQKDNQEEGVCPICQESLKEAVSTNCGHLFCRVCLTQHVEKASASGVFCCPLCRKPCSEEVLGTGYICPNHQKRVCRFCEESRLLLCVECLVSPEHMSHHELTIENALSHYKERLNRRSRKLRKDIAELQRLKAQQEKKLQALQFQVDHGNHRLEAGPESQHQTREQLGALPQQWLGQLEHMPAEAARILDISRAVTQLRSLVIDLERTAKELDTNTLKNAGDLLNRSAPQKLEVIYPQLEKGVSELLLQPPQKL
modifications: lentiviral expression
notes: as for B2
B4: TRIM45: human RING type E3 ligase expressed from lentiviral vector (protein, UniProt Q9H8W5 1-580, looked up)
E3 ubiquitin-protein ligase …: MSENRKPLLGFVSKLTSGTALGNSGKTHCPLCLGLFKAPRLLPCLHTVCTTCLEQLEPFSVVDIRGGDSDTSSEGSIFQELKPRSLQSQIGILCPVCDAQVDLPMGGVKALTIDHLAVNDVMLESLRGEGQGLVCDLCNDREVEKRCQTCKANLCHFCCQAHRRQKKTTYHTMVDLKDLKGYSRIGKPILCPVHPAEELRLFCEFCDRPVCQDCVVGEHREHPCDFTSNVIHKHGDSVWELLKGTQPHVEALEEALAQIHIINSALQKRVEAVAADVRTFSEGYIKAIEEHRDKLLKQLEDIRAQKENSLQLQKAQLEQLLADMRTGVEFTEHLLTSGSDLEILITKRVVVERLRKLNKVQYSTRPGVNDKIRFCPQEKAGQCRGYEIYGTINTKEVDPAKCVLQGEDLHRAREKQTASFTLLCKDAAGEIMGRGGDNVQVAVVPKDKKDSPVRTMVQDNKDGTYYISYTPKEPGVYTVWVCIKEQHVQGSPFTVMVRRKHRPHSGVFHCCTFCSSGGQKTARCACGGTMPGGYLGCGHGHKGHPGHPHWSCCGKFNEKSECTWTGGQSAPRSLLRTVAL
B5: TRIM37: human RING type E3 ligase expressed from lentiviral vector (protein, UniProt O94972 1-964, looked up)
E3 ubiquitin-protein ligase …: MDEQSVESIAEVFRCFICMEKLRDARLCPHCSKLCCFSCIRRWLTEQRAQCPHCRAPLQLRELVNCRWAEEVTQQLDTLQLCSLTKHEENEKDKCENHHEKLSVFCWTCKKCICHQCALWGGMHGGHTFKPLAEIYEQHVTKVNEEVAKLRRRLMELISLVQEVERNVEAVRNAKDERVREIRNAVEMMIARLDTQLKNKLITLMGQKTSLTQETELLESLLQEVEHQLRSCSKSELISKSSEILMMFQQVHRKPMASFVTTPVPPDFTSELVPSYDSATFVLENFSTLRQRADPVYSPPLQVSGLCWRLKVYPDGNGVVRGYYLSVFLELSAGLPETSKYEYRVEMVHQSCNDPTKNIIREFASDFEVGECWGYNRFFRLDLLANEGYLNPQNDTVILRFQVRSPTFFQKSRDQHWYITQLEAAQTSYIQQINNLKERLTIELSRTQKSRDLSPPDNHLSPQNDDALETRAKKSACSDMLLEGGPTTASVREAKEDEEDEEKIQNEDYHHELSDGDLDLDLVYEDEVNQLDGSSSSASSTATSNTEENDIDEETMSGENDVEYNNMELEEGELMEDAAAAGPAGSSHGYVGSSSRISRRTHLCSAATSSLLDIDPLILIHLLDLKDRSSIENLWGLQPRPPASLLQPTASYSRKDKDQRKQQAMWRVPSDLKMLKRLKTQMAEVRCMKTDVKNTLSEIKSSSAASGDMQTSLFSADQAALAACGTENSGRLQDLGMELLAKSSVANCYIRNSTNKKSNSPKPARSSVAGSLSLRRAVDPGENSRSKGDCQTLSEGSPGSSQSGSRHSSPRALIHGSIGDILPKTEDRQCKALDSDAVVVAVFSGLPAVEKRRKMVTLGANAKGGHLEGLQMTDLENNSETGELQPVLPEGASAAPEEGMSSDSDIECDTENEEQEEHTSVGGFHDSFMVMTQPPDEDTHSSFPDGEQIGPEDLSFNTDENSGR
modifications: lentiviral expression
notes: as for B2
B6: TRIM39: human RING type E3 ligase expressed from lentiviral vector (protein, UniProt Q9HCM9 1-518, looked up)
E3 ubiquitin-protein ligase …: MAETSLLEAGASAASTAAALENLQVEASCSVCLEYLKEPVIIECGHNFCKACITRWWEDLERDFPCPVCRKTSRYRSLRPNRQLGSMVEIAKQLQAVKRKIRDESLCPQHHEALSLFCYEDQEAVCLICAISHTHRAHTVVPLDDATQEYKEKLQKCLEPLEQKLQEITRCKSSEEKKPGELKRLVESRRQQILREFEELHRRLDEEQQVLLSRLEEEEQDILQRLRENAAHLGDKRRDLAHLAAEVEGKCLQSGFEMLKDVKSTLEKNIPRKFGGSLSTICPRDHKALLGLVKEINRCEKVKTMEVTSVSIELEKNFSNFPRQYFALRKILKQLIADVTLDPETAHPNLVLSEDRKSVKFVETRLRDLPDTPRRFTFYPCVLATEGFTSGRHYWEVEVGDKTHWAVGVCRDSVSRKGELTPLPETGYWRVRLWNGDKYAATTTPFTPLHIKVKPKRVGIFLDYEAGTLSFYNVTDRSHIYTFTDTFTEKLWPLFYPGIRAGRKNAAPLTIRPPTDWE
B7: TRIM46: human RING type E3 ligase expressed from lentiviral vector (protein, UniProt Q7Z4K8 1-759, looked up)
Tripartite motif-containing …: MAEGEDMQTFTSIMDALVRISTSMKNMEKELLCPVCQEMYKQPLVLPCTHNVCQACAREVLGQQGYIGHGGDPSSEPTSPASTPSTRSPRLSRRTLPKPDRLDRLLKSGFGTYPGRKRGALHPQVIMFPCPACQGDVELGERGLAGLFRNLTLERVVERYRQSVSVGGAILCQLCKPPPLEATKGCTECRATFCNECFKLFHPWGTQKAQHEPTLPTLSFRPKGLMCPDHKEEVTHYCKTCQRLVCQLCRVRRTHSGHKITPVLSAYQALKDKLTKSLTYILGNQDTVQTQICELEEAVRHTEVSGQQAKEEVSQLVRGLGAVLEEKRASLLQAIEECQQERLARLSAQIQEHRSLLDGSGLVGYAQEVLKETDQPCFVQAAKQLHNRIARATEALQTFRPAASSSFRHCQLDVGREMKLLTELNFLRVPEAPVIDTQRTFAYDQIFLCWRLPPHSPPAWHYTVEFRRTDVPAQPGPTRWQRREEVRGTSALLENPDTGSVYVLRVRGCNKAGYGEYSEDVHLHTPPAPVLHFFLDSRWGASRERLAISKDQRAVRSVPGLPLLLAADRLLTGCHLSVDVVLGDVAVTQGRSYWACAVDPASYLVKVGVGLESKLQESFQGAPDVISPRYDPDSGHDSGAEDATVEASPPFAFLTIGMGKILLGSGASSNAGLTGRDGPTAGCTVPLPPRLGICLDYERGRVSFLDAVSFRGLLECPLDCSGPVCPAFCFIGGGAVQLQEPVGTKPERKVTIGGFAKLD
modifications: lentiviral expression
notes: as for B2
B8: TRIM38: human RING type E3 ligase expressed from lentiviral vector (protein, UniProt O00635 1-465, looked up)
E3 ubiquitin-protein ligase …: MASTTSTKKMMEEATCSICLSLMTNPVSINCGHSYCHLCITDFFKNPSQKQLRQETFCCPQCRAPFHMDSLRPNKQLGSLIEALKETDQEMSCEEHGEQFHLFCEDEGQLICWRCERAPQHKGHTTALVEDVCQGYKEKLQKAVTKLKQLEDRCTEQKLSTAMRITKWKEKVQIQRQKIRSDFKNLQCFLHEEEKSYLWRLEKEEQQTLSRLRDYEAGLGLKSNELKSHILELEEKCQGSAQKLLQNVNDTLSRSWAVKLETSEAVSLELHTMCNVSKLYFDVKKMLRSHQVSVTLDPDTAHHELILSEDRRQVTRGYTQENQDTSSRRFTAFPCVLGCEGFTSGRRYFEVDVGEGTGWDLGVCMENVQRGTGMKQEPQSGFWTLRLCKKKGYVALTSPPTSLHLHEQPLLVGIFLDYEAGVVSFYNGNTGCHIFTFPKASFSDTLRPYFQVYQYSPLFLPPPGD
modifications: lentiviral expression
notes: as for B2
B9: TRIM35: human RING type E3 ligase expressed from lentiviral vector (protein, UniProt Q9UPQ4 1-493, looked up)
E3 ubiquitin-protein ligase …: MERSPDVSPGPSRSFKEELLCAVCYDPFRDAVTLRCGHNFCRGCVSRCWEVQVSPTCPVCKDRASPADLRTNHTLNNLVEKLLREEAEGARWTSYRFSRVCRLHRGQLSLFCLEDKELLCCSCQADPRHQGHRVQPVKDTAHDFRAKCRNMEHALREKAKAFWAMRRSYEAIAKHNQVEAAWLEGRIRQEFDKLREFLRVEEQAILDAMAEETRQKQLLADEKMKQLTEETEVLAHEIERLQMEMKEDDVSFLMKHKSRKRRLFCTMEPEPVQPGMLIDVCKYLGSLQYRVWKKMLASVESVPFSFDPNTAAGWLSVSDDLTSVTNHGYRVQVENPERFSSAPCLLGSRVFSQGSHAWEVALGGLQSWRVGVVRVRQDSGAEGHSHSCYHDTRSGFWYVCRTQGVEGDHCVTSDPATSPLVLAIPRRLRVELECEEGELSFYDAERHCHLYTFHARFGEVRPYFYLGGARGAGPPEPLRICPLHISVKEELDG

Test system: coxsackievirus B3 (CVB3-GFP)
Assay type: cell-based
Conditions: HeLa cells, replicate R1; for Percent Infected R1: GFP-positive cells within RFP-positive gate

Molecule	Percent Infected R1 [%]	Z score R1
B1	61.4	−0.346
B2	61.7	−0.342
B3	62.8	−0.328
B4	63.9	−0.314
B5	58.8	−0.379
B6	58.6	−0.382
B7	60.8	−0.354
B8	60.7	−0.355
B9	66.3	−0.284
